Results from patent US20220249369.

Columns and labels:
[1] = tested on: T1, CC6, 5FAM-KYLGRSYKV-K(CPQ2)-C
T1 sequence: KYLGRSYKVKC

[2] = tested on: T2, KTTGGRIYGG
T2 sequence: KTTGGRIYGG

[3] = tested on: T3, QARGGSK
T3 sequence: QARGGSK

[4] = tested on: T4, CC9, 5FAM-GLQRALEI-K(CPQ2)-k-C
T4 sequence: GLQRALEIKKC

Chain of Plasmin (P00747 20-580): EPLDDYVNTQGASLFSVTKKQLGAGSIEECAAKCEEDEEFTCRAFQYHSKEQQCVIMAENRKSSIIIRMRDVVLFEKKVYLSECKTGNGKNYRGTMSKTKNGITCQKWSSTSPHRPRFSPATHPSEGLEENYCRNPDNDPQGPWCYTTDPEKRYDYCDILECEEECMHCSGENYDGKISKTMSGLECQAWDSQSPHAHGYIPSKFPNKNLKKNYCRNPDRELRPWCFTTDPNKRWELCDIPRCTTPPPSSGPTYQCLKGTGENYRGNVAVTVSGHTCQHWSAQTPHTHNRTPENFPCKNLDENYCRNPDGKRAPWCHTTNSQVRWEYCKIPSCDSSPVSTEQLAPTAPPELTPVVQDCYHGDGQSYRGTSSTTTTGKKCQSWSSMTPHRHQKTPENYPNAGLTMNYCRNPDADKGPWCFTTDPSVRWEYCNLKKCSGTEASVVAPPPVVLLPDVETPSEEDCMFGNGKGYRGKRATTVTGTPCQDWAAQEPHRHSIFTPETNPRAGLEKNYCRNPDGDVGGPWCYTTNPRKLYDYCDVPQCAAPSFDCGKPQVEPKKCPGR
Chain of Plasmin (P00747 581-810): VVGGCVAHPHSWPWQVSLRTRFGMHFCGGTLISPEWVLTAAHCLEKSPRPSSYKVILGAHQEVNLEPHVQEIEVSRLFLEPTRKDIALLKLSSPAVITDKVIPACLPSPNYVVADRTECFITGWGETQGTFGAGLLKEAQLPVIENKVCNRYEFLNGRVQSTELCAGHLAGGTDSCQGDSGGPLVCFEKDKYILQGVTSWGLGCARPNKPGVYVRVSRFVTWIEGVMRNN

Substance | relative cleavage velocity (L-gate) [1] | protease cleavage velocity [2] | protease cleavage velocity [3] | relative cleavage velocity (state 1 probability) after the first U-gate [1] | relative cleavage velocity (state 0 probability) after the first U-gate [4] | relative cleavage velocity (state 0 probability) after the second U-gate (state 0 substrate in large molar excess) [4]
Thrombin | adding substrate-1 (KYLGRSYKV (SEQ ID NO:5)) to control b0 (e.g., plasmin) and target bi (e.g., thrombin) at a concentration such that the relative cleavage velocities (rcv) were matched | thrombin cleaving two different peptide substrates (KTTGGRIYGG (SEQ ID NO:2) and QARGGSK (SEQ ID NO:3)) | thrombin cleaving two different peptide substrates (KTTGGRIYGG (SEQ ID NO:2) and QARGGSK (SEQ ID NO:3)) |  |  | 
Plasmin | adding substrate-1 (KYLGRSYKV (SEQ ID NO:5)) to control b0 (e.g., plasmin) and target bi (e.g., thrombin) at a concentration such that the relative cleavage velocities (rcv) were matched |  |  | 55% | 45% | 93%
